Assay results published in patent publication US20220169740A1 (KINDRED BIOSCIENCES, published 2022).
Several values for one entry are separate records, joined by “and”; a condition that tells them apart may be missing. Identical values can stand only once.

T1: canine FcRn with a poly-His tag / canine B2M heterodimer complex (canine, biotinylated where immobilised on the Biacore chip)
T1 construct: Made in HEK cells, Ni-NTA purified; also called canine FcRn/B2M complex; soluble canine FcRn/B2M complex
T1 chain: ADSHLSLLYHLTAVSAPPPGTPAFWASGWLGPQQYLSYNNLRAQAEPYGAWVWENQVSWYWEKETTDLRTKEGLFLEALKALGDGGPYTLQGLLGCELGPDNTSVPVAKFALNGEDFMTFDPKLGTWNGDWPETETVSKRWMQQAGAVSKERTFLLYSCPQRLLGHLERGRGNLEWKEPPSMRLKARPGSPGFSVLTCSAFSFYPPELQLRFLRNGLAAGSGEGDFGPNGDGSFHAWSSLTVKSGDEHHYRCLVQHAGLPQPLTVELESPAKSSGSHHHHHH
T1 b2m: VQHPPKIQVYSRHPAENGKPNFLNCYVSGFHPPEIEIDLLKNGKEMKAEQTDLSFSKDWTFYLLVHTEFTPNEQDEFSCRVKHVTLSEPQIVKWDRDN


Key:
[1] = biological target: T2, human NGF (Sino Biological, Inc.; Catalog No. 11050-HNAC) (human, UniProt P01138 122-241, limits assumed, biotinylated in the Octet assay of Example 3 (sites not given); not biotinylated in the TF1 assay); assay: BLI (Octet); biotinylated human NGF on streptavidin tips, TrkA-Fc 25 ug/mL; 1:1 fit
T2 construct: also called nerve growth factor; biotinylated NGF
Protocol: Binding activity of canine, feline, and equine TrkA ECD v2 and v3 fusion polypeptides prepared in Example 2 (SEQ ID NOs: 16, 17, 19, 20, 22, and 23) to commercially-available human NGF was considered. The binding analysis was performed using a biosensor Octet as follows. Briefly, human NGF (Sino Biological, Inc.; Catalog No. 11050-HNAC) was biotinylated. The free unreacted biotin was removed from biotinylated NGF by extensive dialysis. Biotinylated NGF was captured on streptavidin sensor tips. The association of NGF with TrkA-Fc (25 ug/mL) was monitored for 600 seconds. Dissociation was monitored for 600 seconds. A buffer only blank curve was subtracted to correct for any drift. The data were fit to a 1:1 binding model using ForteBio™ data analysis software to determine the kₒₙ, koff, and the Kd. The buffer for dilutions and all binding steps was: 20 mM phosphate, 150 mM NaCl, pH 7.2.
FIG. 1 and FIG. 2 are sensorgrams showing that canine, feline, and equine TrkA ECD v2 and v3 fusion polypeptides all bind NGF. […] Irrelevant canine and feline IgG-Fc fusion proteins were used as a negative control.

human C1q = human C1q (human, UniProt P02745 23-245; P02746 28-253; P02747 29-245); assay: method not described
[2] = biological target: T1, canine FcRn with a poly-His tag / …; assay: SPR (Biacore T200), steady state, 25 C, pH 6.0; SASA-tagged Fc polypeptide immobilised on CM5 chip, canine FcRn/B2M complex 12.5-200 nM as analyte
Protocol: Binding analysis was performed using a Biacore T200. Briefly, the lead variant canine IgG-B Fc polypeptides with an SASA tag were each immobilized to a Series S Sensor Chip CM5. […] A running buffer of 10 mM HEPES, 500 mM NaCl, 3 mM EDTA, 0.005% Tween-20, pH 6.0 was used. A buffer only blank curve was used as a control.

[3] = biological target: T1, canine FcRn with a poly-His tag / …; assay: SPR (Biacore T200), pH 6.0; biotinylated canine FcRn/B2M complex immobilised, Fc polypeptide as analyte
From the text: The koff of each of the lead variant canine IgG-B polypeptides was further investigated. Biotinylated canine FcRn/B2M complex was immobilized on a Biacore chip and exposed to each variant canine IgG-B polypeptide as an analyte using a Biacore T200 at pH 6.0.

T2 sequence (P01138 122-241 limits assumed): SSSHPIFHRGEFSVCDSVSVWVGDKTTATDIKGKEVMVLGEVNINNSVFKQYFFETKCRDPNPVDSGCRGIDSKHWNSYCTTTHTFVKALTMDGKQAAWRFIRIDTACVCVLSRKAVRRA
Chain of human C1q (P02745 23-245 limits assumed, chain 1 of 3): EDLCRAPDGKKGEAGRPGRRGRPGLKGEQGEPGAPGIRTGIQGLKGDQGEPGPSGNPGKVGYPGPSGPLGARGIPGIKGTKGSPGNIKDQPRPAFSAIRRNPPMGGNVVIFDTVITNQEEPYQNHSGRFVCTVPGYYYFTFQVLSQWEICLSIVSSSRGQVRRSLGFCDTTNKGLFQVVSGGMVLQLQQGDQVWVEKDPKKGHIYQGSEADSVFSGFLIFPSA
Chain of human C1q (P02746 28-253 limits assumed, chain 2 of 3): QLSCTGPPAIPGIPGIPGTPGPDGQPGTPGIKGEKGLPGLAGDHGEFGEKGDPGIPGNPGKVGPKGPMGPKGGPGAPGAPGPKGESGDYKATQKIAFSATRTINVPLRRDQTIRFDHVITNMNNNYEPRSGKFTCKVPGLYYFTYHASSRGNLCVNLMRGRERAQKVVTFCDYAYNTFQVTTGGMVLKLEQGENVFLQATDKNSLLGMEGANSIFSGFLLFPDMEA
Chain of human C1q (P02747 29-245 limits assumed, chain 3 of 3): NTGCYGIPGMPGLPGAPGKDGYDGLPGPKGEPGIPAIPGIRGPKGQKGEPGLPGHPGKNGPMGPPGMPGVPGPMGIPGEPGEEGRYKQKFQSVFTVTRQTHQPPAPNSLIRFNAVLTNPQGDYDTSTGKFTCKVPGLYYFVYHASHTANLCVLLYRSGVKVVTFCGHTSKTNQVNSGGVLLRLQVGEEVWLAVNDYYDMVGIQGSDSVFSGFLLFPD

Binder	Kd [1] [nM]	Kd [2] [nM]	koff [3]	also measured
Canine TrkA ECD v3-wildtype canine IgG-B Fc (Fc fusion, CHO; also called canine TrkA ECD v3 fusion polypeptide; canine TrkA v3) VSFPASVQLHEAVELHHWCIPFSVDGQPAPSLRWLFNGSVLNETSFIFTEFLEPVANETVRHGCLRLNQPTHVNNGNYTLLAANPSGRAAAFVMAAFMDNPSGGGSGGGSRPPDCPKCPAPEMLGGPSVFIFPPKPKDTLLIARTPEVTCVVVDLDPEDPEVQISWFVDGKQMQTAKTQPREEQFNGTYRVVSVLPIGHQDWLKGKQFTCKVNNKALPSPIERTISKARGQAHQPSVYVLPPSREELSKNTVSLTCLIKDFFPPDIDVEWQSNGQQEPESKYRTTPPQLDEDGSYFLYSKLSVDKSRWQRGDTFICAVMHEALHNHYTQESLSHSPGK	~1			
fusion protein comprising wild-type canine IgG-B Fc (Fc fusion, not shown: large carriers) PAPEMLGGPSVFIFPPKPKDTLLIARTPEVTCVVVDLDPEDPEVQISWFVDGKQMQTAKTQPREEQFNGTYRVVSVLPIGHQDWLKGKQFTCKVNNKALPSPIERTISKARGQAHQPSVYVLPPSREELSKNTVSLTCLIKDFFPPDIDVEWQSNGQQEPESKYRTTPPQLDEDGSYFLYSKLSVDKSRWQRGDTFICAVMHEALHNHYTQESLSHSPGK				binding result (human C1q): binds
wild-type canine IgG-B Fc polypeptide (other, Expressed from plasmid pFASEBA in E. coli with an SASA tag; also called wildtype IgG-B Fc polypeptide; not shown: SASA tag) PAPEMLGGPSVFIFPPKPKDTLLIARTPEVTCVVVDLDPEDPEVQISWFVDGKQMQTAKTQPREEQFNGTYRVVSVLPIGHQDWLKGKQFTCKVNNKALPSPIERTISKARGQAHQPSVYVLPPSREELSKNTVSLTCLIKDFFPPDIDVEWQSNGQQEPESKYRTTPPQLDEDGSYFLYSKLSVDKSRWQRGDTFICAVMHEALHNHYTQESLSHSPGK		1250	0.122 s⁻¹	
variant canine IgG-B Fc polypeptide L(23)Y (other, E. coli expressed, with SASA tag; also called Y00; not shown: SASA tag) PAPEMLGGPSVFIFPPKPKDTLYIARTPEVTCVVVDLDPEDPEVQISWFVDGKQMQTAKTQPREEQFNGTYRVVSVLPIGHQDWLKGKQFTCKVNNKALPSPIERTISKARGQAHQPSVYVLPPSREELSKNTVSLTCLIKDFFPPDIDVEWQSNGQQEPESKYRTTPPQLDEDGSYFLYSKLSVDKSRWQRGDTFICAVMHEALHNHYTQESLSHSPGK		113	0.0138 s⁻¹	
variant canine IgG-B Fc polypeptide YTE (other, not shown: small tags and cut ends, also called Leu23Tyr Ala25Thr Thr27Glu) PAPEMLGGPSVFIFPPKPKDTLYITREPEVTCVVVDLDPEDPEVQISWFVDGKQMQTAKTQPREEQFNGTYRVVSVLPIGHQDWLKGKQFTCKVNNKALPSPIERTISKARGQAHQPSVYVLPPSREELSKNTVSLTCLIKDFFPPDIDVEWQSNGQQEPESKYRTTPPQLDEDGSYFLYSKLSVDKSRWQRGDTFICAVMHEALHNHYTQESLSHSPGK		86.2		
variant canine IgG-B Fc polypeptide L(23)F (other, E. coli expressed, with SASA tag; also called F00; not shown: SASA tag) PAPEMLGGPSVFIFPPKPKDTLFIARTPEVTCVVVDLDPEDPEVQISWFVDGKQMQTAKTQPREEQFNGTYRVVSVLPIGHQDWLKGKQFTCKVNNKALPSPIERTISKARGQAHQPSVYVLPPSREELSKNTVSLTCLIKDFFPPDIDVEWQSNGQQEPESKYRTTPPQLDEDGSYFLYSKLSVDKSRWQRGDTFICAVMHEALHNHYTQESLSHSPGK		367	0.0631 s⁻¹ and 0.0847 s⁻¹	
variant canine IgG-B Fc polypeptide L(23)M (other, not shown: SASA tag) PAPEMLGGPSVFIFPPKPKDTLMIARTPEVTCVVVDLDPEDPEVQISWFVDGKQMQTAKTQPREEQFNGTYRVVSVLPIGHQDWLKGKQFTCKVNNKALPSPIERTISKARGQAHQPSVYVLPPSREELSKNTVSLTCLIKDFFPPDIDVEWQSNGQQEPESKYRTTPPQLDEDGSYFLYSKLSVDKSRWQRGDTFICAVMHEALHNHYTQESLSHSPGK		406	0.126 s⁻¹	
variant canine IgG-B polypeptide L(23)S (other, not shown: SASA tag) PAPEMLGGPSVFIFPPKPKDTLSIARTPEVTCVVVDLDPEDPEVQISWFVDGKQMQTAKTQPREEQFNGTYRVVSVLPIGHQDWLKGKQFTCKVNNKALPSPIERTISKARGQAHQPSVYVLPPSREELSKNTVSLTCLIKDFFPPDIDVEWQSNGQQEPESKYRTTPPQLDEDGSYFLYSKLSVDKSRWQRGDTFICAVMHEALHNHYTQESLSHSPGK			0.241 s⁻¹	
fusion protein comprising variant canine IgG-B Fc K(93)R (Fc fusion, not shown: large carriers, also called variant canine IgG-B Fc K(93)R fusion protein) PAPEMLGGPSVFIFPPKPKDTLLIARTPEVTCVVVDLDPEDPEVQISWFVDGKQMQTAKTQPREEQFNGTYRVVSVLPIGHQDWLKGKQFTCRVNNKALPSPIERTISKARGQAHQPSVYVLPPSREELSKNTVSLTCLIKDFFPPDIDVEWQSNGQQEPESKYRTTPPQLDEDGSYFLYSKLSVDKSRWQRGDTFICAVMHEALHNHYTQESLSHSPGK				binding result (human C1q): binds
Feline TrkA ECD v3-wildtype feline IgG2 Fc (Fc fusion, CHO; also called feline TrkA ECD v3 fusion polypeptide; feline TrkA v3) VSFPASVQLHAAVELHHWCIPFSVDGQPAPSLRWLFNGSVLNETSFIFTEFLEPAANETVRHGCLRLNQPTHVNNGNYTLLAANPSGRAAASVLAAFMDNPSGGGSGGGSPKTASTIESKTGEGPKCPVPEIPGAPSVFIFPPKPKDTLSISRTPEVTCLVVDLGPDDSNVQITWFVDNTEMHTAKTRPREEQFNSTYRVVSVLPILHQDWLKGKEFKCKVNSKSLPSAMERTISKAKGQPHEPQVYVLPPTQEELSENKVSVTCLIKGFHPPDIAVEWEITGQPEPENNYQTTPPQLDSDGTYFLYSRLSVDRSHWQRGNTYTCSVSHEALHSHHTQKSLTQSPGK	~1			
Feline TrkA ECD v2-wildtype feline IgG2 Fc (Fc fusion, CHO; also called feline TrkA ECD v2 fusion polypeptide; feline TrkA v2) VSFPASVQLHAAVELHHWCIPFSVDGQPAPSLRWLFNGSVLNETSFIFTEFLEPAANETVRHGCLRLNQPTHVNNGNYTLLAANPSGRAAASVLAAFMDNPFEFNPEDPIPVSFSPVDSNSTSGDSGGGSGGGSPKTASTIESKTGEGPKCPVPEIPGAPSVFIFPPKPKDTLSISRTPEVTCLVVDLGPDDSNVQITWFVDNTEMHTAKTRPREEQFNSTYRVVSVLPILHQDWLKGKEFKCKVNSKSLPSAMERTISKAKGQPHEPQVYVLPPTQEELSENKVSVTCLIKGFHPPDIAVEWEITGQPEPENNYQTTPPQLDSDGTYFLYSRLSVDRSHWQRGNTYTCSVSHEALHSHHTQKSLTQSPGK	~1			
Equine TrkA ECD v3-variant equine IgG2 Fc (Protein A+, C1q-, CD16-) (Fc fusion, CHO; also called equine TrkA ECD v3 fusion polypeptide; equine TrkA v3) VSFPASVHLQTAVEQHHWCIPFSVDGQPAPTLRWLFNGSVLNETSFIFTEFLESAANETMRHGCLRLNQPTHVNNGNYTLLATNPYGQDSASVMVAFMDNPPPCVLSAEGVIPIPSVPKPQCPPYTHSKFLGGPSVFIFPPNPKDTLMISRTPVVTCVVVNLSDQYPDVQFSWYVDNTEVHSAITKQREAQFNSTYRVVSVLPIQHQDWLSGKEFKCSVTNVGVPQPISRAISRGKGPSRVPQVYVLPPHPDELAKSKVSVTCLVKDFYPPDISVEWQSNRWPELEGKYSTTPAQLDGDGSYFLYSKLSLETSRWQQVESFTCAVMHEALHNHYTKTDISESLGK	~1			
Canine TrkA ECD v2-wildtype canine IgG-B Fc (Fc fusion, made in CHO cells; also called canine TrkA ECD v2 fusion polypeptide; canine TrkA v2) VSFPASVQLHEAVELHHWCIPFSVDGQPAPSLRWLFNGSVLNETSFIFTEFLEPVANETVRHGCLRLNQPTHVNNGNYTLLAANPSGRAAAFVMAAFMDNPFEFNPEDPIPVSFSPVDTNSTSGDSGGGSGGGSRPPDCPKCPAPEMLGGPSVFIFPPKPKDTLLIARTPEVTCVVVDLDPEDPEVQISWFVDGKQMQTAKTQPREEQFNGTYRVVSVLPIGHQDWLKGKQFTCKVNNKALPSPIERTISKARGQAHQPSVYVLPPSREELSKNTVSLTCLIKDFFPPDIDVEWQSNGQQEPESKYRTTPPQLDEDGSYFLYSKLSVDKSRWQRGDTFICAVMHEALHNHYTQESLSHSPGK	~1			
